Assay results as given in patent US20050164945A1 (published 2005).
No end group written: not given here.

Biological target: T1, recombinant endotheliase 1 (human, UniProt Q9UL52 192-423, limits assumed)
T1 construct: also called ET1; rET1
T1 sequence: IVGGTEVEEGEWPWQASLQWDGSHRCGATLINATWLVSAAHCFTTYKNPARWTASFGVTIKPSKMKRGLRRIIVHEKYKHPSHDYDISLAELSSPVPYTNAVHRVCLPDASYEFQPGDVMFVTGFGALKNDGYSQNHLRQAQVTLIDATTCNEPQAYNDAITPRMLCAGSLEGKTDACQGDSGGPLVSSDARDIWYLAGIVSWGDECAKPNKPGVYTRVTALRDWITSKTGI
Assay: inhibition of ET1 activity

- Ki: 500 nM
B1: DX-1107 (peptide)
peptide: AGKWHCKGYAPDCQMWGT
modifications: not fully specified (bridges); cysteine pairing not given here
notes: synthetic peptide
